Here are results for 1 molecule from patent publication KR20170011863A.

Substrate in this experiment: B형 간염 바이러스의 표면 항원 (Hepatitis B surface antigen; HBsAg) (Hepatitis B virus)
Briefly: cell-based or functional assay.

B1: GC1102 (HBsAg에 대한 인간 HBV 항체) (antibody, V domains shown)
VH: QVKLLESGGGLVKPGGSLRLSCSASGFSLTKYKMTWVRQAPGKGLEWVSSISSTSRDIDYADSVKGRFTISRDNAKNSLFLQMSSLRVDDTAVYYCTRDGWLWGWDVRSNYYYNALDVWGQGTTVTVSS
VL: ELVMTQSPSSLSASVGDRVTITCRASQGIYNSIAWYQQKPGKAPKLLLYSTSTLLSGVPSRFSGSGSGTDYTLTITNLQPEDFATYYCQQYFVTPETFGQGTKVEIKR
In the case of B1, the EC50 (effective concentration) of inhibition of HBV infection of HepG2-NTCP cells is 15 ng/mL and the EC50 (effective concentration) of inhibition of HBV infection of HepG2-NTCP cells, converted to molar concentration (150 kDa) turned out to be 100 pM.
